The values below come from US20140328753A1.

Assay [1] addresses rabbit atheromatous protein extract. Briefly: direct TR-FRET inhibition; six-fold excess of unlabeled atheromatous extract as competitor against biotinylated atheromatous extract, 16 h at 4 °C.
The target of assay [2] is unlabeled protein extract from untreated animals. Briefly: direct TR-FRET inhibition; six-fold excess of unlabeled extract from untreated rabbits as competitor against biotinylated atheromatous extract, 16 h at 4 °C. In general terms: Time-resolved FRET reads energy transfer from a long-lived donor to a nearby acceptor.

B1: H2.1 scFv antibody (scFv)
scFv: EVQLVESGGSLVKPGGSLRLSCAASGFTFSNYSMNWVRQAPGKGLEWISSISGSSRYIYYADFVKGRFTISRDNATNSLYLQMNSLRAEDTAVYYCVRGGVDSSGDNCFDLWGRGTLVTVSSGGGGSGGGGSGGGGSQSVLTQPASVSGSPGQSITISCAGTSSDVGGYNYVSWYQQHPGKAPKLMIYEDSKRPSGVSNRFSGSKSGNTASLTISGLQAEDEADYYCTSYGSGATLVFGGGTKLAV
Regarding B1, the inhibition of the DeltaF binding value in assay [1] worked out at 75%; in assay [2] it was 50%.

B2: I8.1 scFv antibody (scFv)
scFv: EVQLVESGGSLVKPGGSLRLSCAASGFTFSNYSMNWVRQAPGKGLEWISSISGSSRYIYYADFVKGRFTISRDNATNSLYLQMNSLRAEDTAVYYCVRNSFYASWSKDYSMEIWGRGTLVTVSSGGGGSGGGGSGGGGSQSVLTQPASVSGSPGQSITISCAGTSSDVGGYNYVSWYQQHPGKAPKLMIYEDSKRPSGVSNRFSGSKSGNTASLTISGLQAEDEADYYCQSWASRINIFGGGTKLAV
In the case of B2, the inhibition of the DeltaF binding value in assay [1] amounted to 80%; in assay [2] it was 35%.
